Results published in publication PMC11374688.

Assays:
[1] = biological target: S. pombe Ubc4(C21S/C107S) (S. pombe) (UniProt P46595)
[2] = biological target: Ub(T): S. pombe Ub residues 1–74 extended with Gly–PSAN (Ub-PSAN), as cyanomethyldithioacetal in the complexes (S. pombe) (UniProt P0CG72)
UniProt P0CG72, sequence (P0CG72 1-74, one chain of several): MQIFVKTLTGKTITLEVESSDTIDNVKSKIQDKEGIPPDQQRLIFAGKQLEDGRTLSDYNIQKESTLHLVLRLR

S. pombe Ubc4(C21S/C107S) (S. pombe), sequence (P46595 whole entry C21S/C107S, the tested form may be a part): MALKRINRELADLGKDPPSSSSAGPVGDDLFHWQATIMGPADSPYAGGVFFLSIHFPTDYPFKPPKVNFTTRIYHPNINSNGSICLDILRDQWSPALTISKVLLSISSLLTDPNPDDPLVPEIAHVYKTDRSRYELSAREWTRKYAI

- E2~Ub(T)-to-E3^HECT pulse–chase transthiolation, fold loss of activity against wild type [1]: 30 fold
- E2~Ub(T)-to-E3^HECT pulse–chase transthiolation, fold loss of activity against wild type [2]: 30 fold
B1: S. pombe Pub2^HECT (295–671) F640A (domain or fragment)
chain: DEYQRKIAYMYDRPEMAVNDAQLQLKVSRATTFEDAYDIISKLSVSDMKKKLLIRFRNEDGLDYGGVSREFFYILSHAIFNPGYSLFEYATDDNYGLQISPLSSVNPDFRSYFRFVGRVMGLAIYHRRYLDVQFVLPFYKRILQKPLCLEDVKDVDEVYYESLKWIKNNDVDESLCLNFSVEENRFGESVTVDLIPNGRNIAVNNQNKMNYLKALTEHKLVTSTEEQFNALKGGLNELIPDSVLQIFNENELDTLLNGKRDIDVQDWKRFTDYRSYTETDDIVIWFWELLSEWSPEKKAKLLQFATGTSRLPLSGFKDMHGSDGPRKFTIEKVGHISQLPKAHTCANRLDIPPYNSKEELEQKLTIAIQETAGFGTE
